# According to publication PMC10237670, “Biochemical properties of naturally occurring human bloom helicase variants”:
# B1: partial dsDNA with 3' ssDNA overhang (oRC32/FAM-oAV320) (dsDNA)
# DNA 1: TGGCGACGGCAGCGAGGCTTAGGGTTAGCGTTAGCGTTAGGGTTTTTTTTTTTTTTT
# DNA 2: GCCTCGCTGCCGTCGCCA
# Columns and labels:
# WT BLMcore [1] = biological target: T1, WT BLMcore (Homo sapiens, UniProt P54132 636-1298); test: EMSA; 5 mM MgCl2; distinct shift; estimated apparent KD; 50 mM Tris-HCl pH 7.5, 50 mM KCl, 5 mM MgCl2, 1 mM DTT, 0.1 mg/mL BSA, 40 nM DNA, 30 min room temperature; 5% gel in TBE + 100 mM KCl at 4 C; conditions: protein: recombinant; (HisTrap purified); label: 3'-FAM on oAV320 (strand 2); 18 bp duplex, 3' overhang 39 nt on strand 1
# WT BLMcore [2] = biological target: T1, WT BLMcore; test: EMSA; 5 mM MgCl2; smear; estimated apparent KD; 50 mM Tris-HCl pH 7.5, 50 mM KCl, 5 mM MgCl2, 1 mM DTT, 0.1 mg/mL BSA, 40 nM DNA, 30 min room temperature; 5% gel in TBE + 100 mM KCl at 4 C; conditions: protein: recombinant, (HisTrap purified)
# T1 sequence (P54132 636-1298): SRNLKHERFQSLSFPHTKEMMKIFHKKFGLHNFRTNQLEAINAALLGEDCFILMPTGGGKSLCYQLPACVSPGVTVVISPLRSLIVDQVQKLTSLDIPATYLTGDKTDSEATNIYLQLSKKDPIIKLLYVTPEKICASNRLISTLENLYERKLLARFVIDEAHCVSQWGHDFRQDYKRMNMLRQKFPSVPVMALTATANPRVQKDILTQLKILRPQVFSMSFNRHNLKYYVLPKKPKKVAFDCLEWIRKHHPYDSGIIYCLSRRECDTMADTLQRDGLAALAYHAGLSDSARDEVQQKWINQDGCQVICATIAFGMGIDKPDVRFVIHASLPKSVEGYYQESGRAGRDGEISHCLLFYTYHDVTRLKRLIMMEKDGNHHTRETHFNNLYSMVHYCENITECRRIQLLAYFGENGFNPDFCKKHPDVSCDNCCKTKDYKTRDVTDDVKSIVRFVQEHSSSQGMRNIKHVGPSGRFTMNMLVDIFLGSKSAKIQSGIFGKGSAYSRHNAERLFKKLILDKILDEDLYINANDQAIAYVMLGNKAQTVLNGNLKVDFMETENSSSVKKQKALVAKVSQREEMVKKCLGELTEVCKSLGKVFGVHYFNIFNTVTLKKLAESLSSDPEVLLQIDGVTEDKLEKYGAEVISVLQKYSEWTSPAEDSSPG
binder,measurement,setting,value
B1,Kd,WT BLMcore [1],~79 nM
TTTTTTTTTTTTTTTTTTTTTTTTTTTTTT (ssDNA) [FAM-dT30 (ssDNA)],Kd,WT BLMcore [2]; single strand,~125 nM
GGGTTAGGGTTAGGGTTAGGGTTTTTTTTTT (structured_DNA) [G4 DNA with 3' ssDNA overhang (FAM-oRC96)],Kd,"WT BLMcore [2]; label: 3'-FAM, intramolecular G4 (folded in 100 mM KCl) with 3' T-rich ssDNA tail",~125 nM
